Results: patent publication US20250250330A1 (REVOPSIS THERAPEUTICS, published 2025)

Biological target: T1, rhVEGF-C (AcroBio_VEC-H4225) (human, UniProt P49767 103-227, limits assumed)
T1 construct: domain: PDGF domain; Bought protein; not shown: His tag
T1 sequence (looked up): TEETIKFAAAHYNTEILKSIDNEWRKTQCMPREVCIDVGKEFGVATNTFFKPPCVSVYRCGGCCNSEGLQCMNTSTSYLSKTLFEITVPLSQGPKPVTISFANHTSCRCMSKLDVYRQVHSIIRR
Assay: ELISA: rhVEGF-C_AcroBio coated at 1 ug/mL, RO-101_Sample 1 titrated, detected with anti-human IgG Fc-gamma-HRP
Experimental: Different target proteins were used to coat Corning 9017 medium binding plates at 1 μg/mL and 100 μl per well. Donkey anti-human IgG Fcγ-HRP was used for detection. OD450 nm readings were measured by Victor 3.

B1: RO-101 VEGF/ANG-2 bispecific surrobody (bispecific antibody, human IgG1, L234A L235A)
heavy 1: not shown
heavy 2: EVQLVESGGGLVKPGGSLRLSCAASGFTFSSYGMHWVRQAPGKGLEWVAGISADSGDKNYADSVKGRFTISRDNAKNSLYLQMNSLRAEDTAVYYCAKEFISWIYTFDYLDYWGQGTLVTVSSASTKGPSVFPLAPSSKSTSGGTAALGCLVKDYFPEPVTVSWNSGALTSGVHTFPAVLQSSGLYSLSSVVTVPSSSLGTQTYICNVNHKPSNTKVDKKVEPKSCDKTHTCPPCPAPEAAGGPSVFLFPPKPKDTLMISRTPEVTCVVVDVSHEDPEVKFNWYVDGVEVHNAKTKPREEQYNSTYRVVSVLTVLHQDWLNGKEYKCKVSNKALPAPIEKTISKAKGQPREPQVCTLPPSRDELTKNQVSLSCAVKGFYPSDIAVEWESNGQPENNYKTTPPVLDSDGSFFLVSKLTVDKSRWQQGNVFSCSVMHEALHNHYTQKSLSLSPG
light: QPVLHQPPAMSSALGTTIRLTCTLRNDHDIGVYSVYWYQQRPGHPPRFLLRYFSQSDKSQGPQVPPRFSGSKDVARNRGYLSISELQPEDEAMYYCAMGARSSVTHVFGSGTQLTVLSQPKATPSVTLFPPSSEELQANKATLVCLMNDFYPGILTVTWKADGTPITQGVEMTTPSKQSNNKYAASSYLSLTPEQWRSRRSYSCQVMHEGSTVEKTVAPAECS
notes: Format SgG1; also called Sample 1
- binding result: no binding (tested: 100 nM (Log(nM) 2))
